The RNAGym collection of RNA variant scans (doi:10.1073/pnas.2313332121)

B1: TPR t1 (parent)
chain: GACCAAUCUGCCCUCAGAGCUCGAGAACAUCUUCGGAUGCAGAGGAGGCAGGCUUCGGUGGCGCGAUAGCGCCAACGUCCUCAACCUCCAAUGCAUCCCACCACAUGAUGAUGCCUGAAGAGCCUUGGUUUUUUG

Variants of: B1
Assay: polymerase ribozyme fitness, log enrichment relative to wild type (log ratio); higher = more active; in vitro selection for triplet polymerase activity
In short: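 PCR was used to build mutant libraries for each subunit of a heterodimeric triplet polymerase ribozyme, which were then transcribed. A single in vitro selection round, in triplicate, used a frozen incubation at −7 °C and recovered extended constructs by gel excision, streptavidin beads and RT-PCR. Fitness is the logarithm of genotype enrichment relative to wild-type enrichment, averaged over replicates with inverse-variance weights. The logarithm is base 2, and after Illumina sequencing only genotypes with ≥10 input reads and ≥1 read per output were kept.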

Variant | polymerase ribozyme fitness (log ratio)
GACCAAUCUGCCCUCAGAGCUCGAGAACAUCUUCGUAUGCAGAGGAGGCAGGCUUCGGUGGCGCGAUAACGCCAACGUCCACAACCUCCAAUGCAUCCCACCACAUGAUGAUGCCUGAAGAGCCUUGGUUUUUUG [G36U G69A U81A] | -3.96
GACCAAUCUGCCCUCAGAGCUCGAGAACAUCUUCGGAUGCAGAGGAGCCAGGCUUCGGUAGCGCGAUAGCGCCAACGUCCUCAACCUCCAAUGGAUCCCACCACAUGAUGAUGCUUGAAGAGCCUUGGUUUUUUG [G48C G60A C94G C115U] | -3.74
GACCAAUCUGCCCUCAGAGCUCGAGGACAUCUUCGGAUGCAGAGGGGGCAGGCUUCGGUUGCGCGAUAGCGCCAACGUCCUCAACCUCCAAUGCAUCCCACCACAUGAUGAUGCCUGAAGAGCCUUGGUUUUUUG [A26G A46G G60U] | -3.73
GACCAAUCUGUCCUCAGAGCUAGAGAACAUCUUCGGAUGCAGAGGAGGCAGGCUUCGGUGGCGCGAUAGCGCAAACGUCCUCUACCUCCAAUGCAUCCCACCACAUGAUGAUGCCUGAAGAGCCUUGGUUUUUUG [C11U C22A C73A A83U] | -5.9
GAUCAAUCUGUCCUCAGAGCUCGAGAACAUCUUCGGAUGCAGAGGAGACAGGCUUCGGUGGCGCGAUAGCGCCAACGUCCUCAACCUCCAAUGCAUCCCACCACAUGAUGAUGCCUCAAGAGGCUUGGCUUUCUG [C3U C11U G48A G117C C123G U129C U133C] | -2.05
GACCAAUCUGCCCUCAGAGCUCGAGAACAUCUUCGGAUGCCGAGGAGGCAGGCUUCGGUGGCGCGAUAGCGCCAACGUCCUCAACCUCCGAUGCAUCCCACCACAUGAUGAUGCCUGAAGAGCCUUGGUUUUUUG [A41C A90G] | -0.105
GACCAAUCGGGCCUCAGAGCUCGAGAACAUCUUCGGAUGCAGAGGAGGCAGGCUUCGGUGGCGCGAUAGCGCCAACGUCCUCAACCUCCAAUGCAUCCCACCACAUGAUGAUGCCUGAAGAGCCUUGGUUUUUUG [U9G C11G] | -4.02
GACCAAUCUGCCCUCACAGCUCGAGAACAUCUUCGCAUGCAGAGGAGGCAGGCUUCGGUGGCGCGAUAGCGCCAACGUCCUCAACCUCCAAUGCAUCCCACCACAUGAUGAUGGCUGAAGAGCCUUGGUUGUUUG [G17C G36C C114G U131G] | -4.72
GACCAAUAUGCUCUCAGAGCUCGAGAACAUCUUCGGAUGCAGAGUAGGCAGGCUUCGGUGGUGCGAUAGCGCCAACGUCCUCAACCUCCAAUGGAUCCCACCACAUGAUGAUGCCUGAAGAGCCUUGGUUUUUUG [C8A C12U G45U C62U C94G] | -1.01
GACCAAUCUGCCCUCAGAGCUCGAGAACAUCUUCGGAUGCAGAGGACGCAGGCUUCGGUGGCGCGAUAGCGCCAACGUCCGCAACCUCCAAUGCAUCCCACCACAUGAUGAUGCCUGAAGAGCCUUGGUUUUUUG [G47C U81G] | -3.84
GACCAAUCUGCCCUCAGAGCUCGAGAACAUCUUUGGAUGCAGAGGAGGCAGGCUUCGGUGGCGCGAUAGCGCCAACGUCCUCAAUCUCCAAUGCAUCCCACCACAUGAUGAUGCCUGAAGAGCCUUGGUUUUUUG [C34U C85U] | -4.13
GACCAAUCUGCCCUCAGAGCACGAGAACAUCUUCGGAUGCAGAGGAGGCAGGCUUCGGUGGGGCGAUAGCGCUAACGUCCUCAACCUCCAAUGCAUCCCACCACAUGAUGAUGCCUGAAGAGCCUUGGUUUUUUG [U21A C62G C73U] | -2.55
GACCAAUCUACCCUCAGAGCUCGAGAACAUCUUCGGAUGAAGAGGAGGCUGGCUUCGGUGGCGCGAUAGCGCCAACGACCUCAACCUCCAAUGCAUCCCACCACAUGAUGAUGCCUGAAGAGCCUUGGUUUUUUG [G10A C40A A50U U78A] | -4.41
GACCAACCUGCCCUCAGAGCUCGAGAACAUCUUCGGAUGCAGAGGAGUCAGGUUUCGGUGGCGCGAUAGCGCCAACAUCCACAACCUCCAAUGCACCCCACCACAUGAUGAUGCCUGAACAGCCUUGGUUUUUUG [U7C G48U C53U G77A U81A U96C G120C] | -2
GACCAAUCUGCCCUCAGAGCUCGAGAACAUCUUCGGAUGCAGAGGAGGCAGGCUUCGGUGGCGCGAUAGCGCCAACGGCCUCAACCUCCAAUGCAUCCCACCACAUGAUGAUGCCUGAAGAGACUUGGUUUUUUG [U78G C123A] | -1.06
GACCAAUCUGCGCUCAGAGCUCGAGAACAUCUUCGGAUGCAGAGGAGGCAGGCUUCGGUGGCGCGAUAGCGGCAACGUCCUCAACCUCCAAUGCAUCCCACCACAUGAUGAUGCCUGAAGAGCCUUGGUUUUUUG [C12G C72G] | 0.202
GACCAAUCUGCCCUCAGAGCUCGAGAACAUCUUUGGAUGCAGAGGAGGCAGGCUUCGAUGGCGCGAUAGCGCCAACGUCCUCAACCUCCAAUGCAUCCUACCACAUGAUGAUGCCUGAAGAGCCUUGGUUUUUUG [C34U G58A C99U] | -4.17
GACCAAUCUGCCCUCAGAGCUCGAGAACAUCUUCGGAUGCAGAGGAGGCAGGCUUCGGUGGCGCGAUAGCGCCAACGUCCUCAACCUCCAAUGCAUCCCACCACAUGAUGAAGCCUGAAGAGGCUUGGUUUUUUG [U112A C123G] | 0.872
GACCAAUCUGUCCUCAAAGCUCGAGAACAUCUUCGGAUGCAGAGGAGGCAGGCUUCGGUGGCGUGAUAGCGCCAACGUCCUCCCCCUCCAAUGCAUCCCACCACAUGAUGAUGCCUGAGGAGCCUUGGUUUUUUG [C11U G17A C64U A83C A84C A119G] | -0.999
GACCAAUCUGCCCUCAGAGCUCGAGAACAUCUUCGGAUGCAGAGGAGGCAGGAUUCGGUGGCGCGAUAGCGCCAACGUCCUCAACCUCUAAUGCAUCCCACCACAUGAUGAUGCAUGAAGAGCCUUGGUUUUUUG [C53A C89U C115A] | -0.188
GACCAAUCUGCCCUCAGAGCUCGAGAACAUCUUCGGAUGCAGAGGAGGCAGGCUUCGGUGCCGCGAUAGCGCCAACGUCCUCAACCUCCAAUGCAUCCCAACACAUGAUGAUGCCUGAAGAGCCUUGGUUUUUUG [G61C C101A] | -2.74
